{"source": "patent US20250051802", "system": "SluCas9", "assay": "cell_activity", "details": "amplicon sequencing, HEK 293T", "data": [{"sequence": "CCAUUCCCUCUUUAGCCAGAG / CCATTCCCTCTTTAGCCAGAGCGGGGT / ACCCCGCTCTGGCTAAAGAGGGAATGG [pBLR194 guide spacer ; pBLR194 target with PAM]", "values": [{"measurement": "activity", "setting": "PAM NNGG (CGGGGT)", "result": 65.7, "unit": "%"}]}, {"sequence": "GGCCGGCGGCGGACAGUGGAC / GGCCGGCGGCGGACAGTGGACGCGGCGGC / GCCGCCGCGTCCACTGTCCGCCGCCGGCC [pBLR179 guide spacer ; pBLR179 target with PAM]", "values": [{"measurement": "activity", "setting": "PAM NNGG (GCGGCGGC)", "result": 72.8, "unit": "%"}]}, {"sequence": "UGCCCUGUGGGGCAAGGUGAA / TGCCCTGTGGGGCAAGGTGAAGTGGAT / ATCCACTTCACCTTGCCCCACAGGGCA [pBLR197 guide spacer ; pBLR197 target with PAM]", "values": [{"measurement": "activity", "setting": "PAM NNGG (GTGGAT)", "result": 1.9, "unit": "%"}]}]}
